From patent publication US20020031818A1, “Modification of Mdm2 activity” (priority 2000, published 2002)

Legend:
[1] = system: Mdm2; assay: Pulse-chase half-life of Mdm2 wt or S218A in normal human fibroblasts; type: cell-based
Procedure: FIG. 16A-16F. A. Activation of p38 increases Mdm2 ubiquitination in vivo. EJ cells were transfected with indicated plasmids. 36 h after transfection cells were harvested and Mdm2 was immunoprecipitated (2A10 antibodies). […] Middle panels show expression levels of Mdm2 and p19^ARF. Lower panels depict phospho-and total p38 levels. B. Mutation at Ser218 of Mdm2 abolishes p38 induced Mdm2 ubiquitination. Normal human fibroblasts were transfected with indicated plasmids. 36 h after transfection cells were harvested and lysed. Mdm2 was immunoprecipitated and proteins were separated on a 8% SDS-PAGE. […] C. Mutation at Ser218 of Mdm2 abrogates p19^ARF-induced Mdm2 degradation. […] Upper panels depict Mdm2-Sumo conjugates (detected via Sumo-1 anitbodies), as well as the 75 kD and 90 kD forms of Mdm2 (detected via Mdm2 antibodies). […] To monitor possible changes in amount of p19 bound to Mdm2 association was monitored using normalized Mdm2 levels at the indicated time-points after UV-treatment.
Normal human fibroblasts (NHF) were transfected with wt or S218A forms of Mdm2 expression vectors (4 μg). ^35S-methionine (1 mCi) was added to the cell cultures 24 h after transfection for 5 h (pulse) followed by chase (2 mM cold methionine) for the indicated time points. […] Immunoprecipated Mdm2 was washed, separated on 10% SDS-PAGE, and analyzed by autoradiography.

[2] = molecular target: Mdm2 (Homo sapiens, UniProt Q00987); assay: Mdm2 sumoylation in EJ cells; type: cell-based, mouse; design: expressed in transfected cells; host or cells: EJ mouse fibroblasts (p19ARF null); conditions: EJ cells (lack p19ARF), Flag-Mdm2 and p19ARF constructs 2 μg
Procedure: FIG. 13A-13E. A. Bacterially expressed and purified Mdm2 (1 μg) was incubated with ^32P-labeled Sumo-1, purified Aos1/Uba2 and Ubc9 (0.5 μg) for 60 min at 37° C. in conjugation buffer. For indicated time-periods in vitro translated wt or mutant p19^ARF ([…]) was added to the sumoylation reactions. Upper panel depicts the amount of Sumoylated Mdm2, lower panel reveal the level of Mdm2 and Sumo-Mdm2 in Coomassie blue gel. B. Bacterially expressed and purified Mdm2 (1 μg) was incubated with in vitro-translated ^35S-Sumo, purified Aos1/Uba2 and Ubc9 (0.5 μg) for 60 min at 37° C. in conjugation buffer in the presence of the increasing amounts of bacculovirus-expressed p19^ARF (0, 0.1, 0.5, 1 μg; lanes 1-4 respectively). Bead-bound complexes were washed before being denatured in 3× Sample Buffer. Proteins were separated on 8% SDS-PAGE. Gel was stained with Coomassie blue to verify equal Mdm2 input (lower panel), dried and exposed to X-ray film, which depicts SUMO-1 conjugation to Mdm2 in the presence of the indicated p19 forms (upper panel). […] (Left) Immunoprecipitated Mdm2 was detected using monoclonal Mdm2 antibodies (2A10, left). […] SUMO-conjugation to Mdm2 was detected using monoclonal antibodies to SUMO-1 (top). […]

Chain of Mdm2 (Homo sapiens, UniProt Q00987) (Q00987 whole entry): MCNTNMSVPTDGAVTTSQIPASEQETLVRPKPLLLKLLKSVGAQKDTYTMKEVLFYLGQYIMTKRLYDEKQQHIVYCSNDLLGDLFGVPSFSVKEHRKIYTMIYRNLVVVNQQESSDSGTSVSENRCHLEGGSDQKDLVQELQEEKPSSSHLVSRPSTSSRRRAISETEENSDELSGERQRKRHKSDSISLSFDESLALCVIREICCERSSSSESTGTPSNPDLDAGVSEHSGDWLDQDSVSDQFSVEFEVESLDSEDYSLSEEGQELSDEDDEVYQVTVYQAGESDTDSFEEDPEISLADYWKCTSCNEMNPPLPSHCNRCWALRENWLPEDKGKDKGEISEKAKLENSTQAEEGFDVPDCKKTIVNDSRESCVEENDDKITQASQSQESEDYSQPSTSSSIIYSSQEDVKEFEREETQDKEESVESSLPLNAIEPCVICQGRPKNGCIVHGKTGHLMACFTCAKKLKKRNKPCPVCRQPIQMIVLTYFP

B1: p19^ARF: Mdm2-regulating protein; in vitro translated, bacculovirus-expressed or transfected (protein)
chain: MGRRFLVTVRIQRAGRPLQERVFLVKFVRSRRPRTASCALAFVNMLLRLERILRRGPHRNPGPGDDDGQRSRSSSSAQLRCRFELRGPHYLLPPGARRSAGRLPGHAGGAARVRGSAGCARCLGSPAARLGPRAGTSRHRAIFAFRWVLFVFRWVVFVYRWERRPDRRA
In the case of B1, the “effect on half-life of Mdm2 S218A mutant” value [1] is reported as “minimal effects” and the “Mdm2 sumoylation in EJ cells upon co-expression” value [2] is reported as “inhibition of Mdm2 sumoylation”.
